# Measured values as given in the DeepSol protein solubility set.
# Test: soluble on expression in E. coli; label from the status in PepcDB or PDB records
row,Sequence,soluble on expression in E. coli
1,QAGRFIGQEISGRLSSRSMLAVQIDDLLKLAARFVGEERARQSFIRFAYRQGKGFNPNQNADGEWIAHTERLLAGVLGASSTRAVVKAAIEGREMQLEDVVRIADEASEVLQFNRALLQGAIENITQGISVVDQSL,not soluble
2,MGSDKIHHHHHHMRLTTKGRFAVTAMIDLALREHSGPVALAAISSRQQISLSYLEQLFGKLRRHELVESTRGPGGGYSLGRKAEEITVADIIVAVDEPIDATGCGGKENCMGEDSGRCMTHDLWASLNTKMIEFLDSISLRKLVDDQLAKGVSIEEAPVKRAISSQPVVKPIKITAPNSVFALGSSFSK,not soluble
3,MGSDKIHHHHHHMLKRILVIIGLAVLATACSNAPRTVSHQVISENDDIQLTGLINNLEKDNRTGIFHKVRTNRSSALMGDKALASVYNEWVGTRYRMGGTTKRGIDCSAFMQTTFSEVFGIELPRSTAEQRHLGRKINKSELKKGDLVFFRKNNHVGVYIGNNQFMHASTGQGVTISSLDEKYWARTYTQSRRIM,not soluble
4,MIPPLNRYVPALSKNELVKTVTNRDIQFTSFNGKDYPLCFLDEKTPLLFQWFERNPARFGKNDIPIINTEKNPYLNNIIKAATIEKERLIGIFVDGDFFPGQKDAFSKLEYDYENIKVIYRNDIDFSMYDKKLSEIYMENISKQESMPEEKRDCHLLQLLKKELSDIQEGNDSLIKSYLLDKGHGWFDFYRNMAMLKAGQLFLEADKVGCYDLSTNSGCIYLDADMIITEKLGGIYIPDGIAVHVERIDGRASMENGIIAVDRNNHPALLAGLEIMHTKFDADPYSDGVCNGIRKHFNYSLNEDYNSFCDFIEFKHDNIIMNTSQFTQSSWARHVQ,not soluble
5,MSLAESRLTKLGQELAADKEFSSLERFADLVEKLQASLEIDATTLAAILLKRQQGKRPLFYVGADPMIEAMEREKSRRRERRDDRRDGDRPARREFGGRDQENHDWDTYQLQVGRDQGVQVKDIVGALANELGLTKGSIGAIKLAQGHTFVQLPKAMSNDVSSKLRKLRIRQKEVGAVVCDFDDFRESRGGARREGGPRREGGRRPEGNREGGFRGGREGGREGGRGRGGEGRPFREGERRFERNRSGESSGSYRGERGHSRRREEAEGHHHHHH,not soluble
6,MGSDKIHHHHHHAPKKKEEPSPEASSSKRPFRVCLNVSTIAGYKLPVQKQIDLCAEAGFEGIELWTRDVDAFVKQGGTYETLRRQLEGSGLLLENMIGFASWFADDLSKRKEGLNQMRHDMEMVAGLGGKFIAAPAQGVTQLDRTRLPEYSERYRAILDLGDEMGVTPILELWGAGILNQLSDTMAIAIASGHSRASVLLDFYHLYRGGNSFDSLRLINGKILPVFHINDYPELPPRTELRDSDRVFPGDGICPFNKVLPLLYDSGFRGGLSVELFNKGYWETMDVKEVLKKSFEKTTQVINSSMG,not soluble
7,MFKHKKNEARNYSKMRESRYEYGTILKAHAAFVEIVTRPAPHRDNLPFNMSTLSVLIETSSCSWGMLASAHGDRTIGIILRAIVSFCNAHLGQSANNQLLVFAYGRNVDNKMIYSSTRCEDRNASFLVVKRLRELLSSDALTNDATIGAPLGPALAHAFCHMKKDSRVVTADPCDDSLGPQTTSEQSETASEKATNRAVVISITPIMGSEHGSLMNLFFSAAKQSICVDVVSMGDDFTGGILQQAADITGGSFLHAKKPQTLLKILMTNMLTDPTHRAVFSKLSHNSVDYRASCACHHQLVSSGWVCSICLSVLCQYTPICKVCKAAFTIANLPIKPNRKRAIRN,not soluble
8,GSPELGFSFDYAYQPIVNLHDQSIFAHEALVRGPNGEGAMSVLNQVTDQNRYRFDQKCRTTAIAGAAKLGMTERLSINFLPNAVYRPELCIRSTLEAAKQHDFPIERLIFETIESEHVDNNNHLSNILREYREFGFMTAIDDFGAGYSGLTLLADFQPDLIKLDMNLVRDIHRDRARQAIVRGVVTMCKDLGIKLIAEGIEHIEERDFLADCGISLMQGYLFAKP,not soluble
9,MTSAAQLTALLHLASPALPVGAFSYSQGLEAAVEARHVHDEASAARWIAEGLAVLAACEAPLWLLQYADWQAGRLDAVAERDGWFLATRETRELRLETAQMGWSLARLIAQMGWGAPAMRDALAARAAITFPTAFAAAAVALGIEARDGLTAYSFAWVENQVAAAVKAIPLGQAAGQRILFGLHAAVGQAAEDAARRAACHPPELSTFSPGLGVLSARHETQYSRLFRSLEHHHHHH,not soluble
10,MSDDDSSHDLPAANLQQLRLPDSASLRPAFSTHRPRILILYGSLRTVSYSRLLAEEARRLLEFFGAEVKVFDPSGLPLPDAAPVSHPKVQELRELSIWSEGQVWVSPERHGAMTGIMKAQIDWIPLSTGSIRPTQGKTLAVMQVSGGSQSFNAVNQMRILGRWMRMITIPNQSSVAKAFQEFDANGRMKPSSYYDRVVDVMEELVKFTLLTRDCSAYLTDRYSERKESAAELEHRVTLKSVHHHHHH,soluble
11,MSLFIDAHNHLDFFEEQEKLNKALDIIKNDNIITLGCSMDTKSYKFTKSLALKNKNIIPCFGIHPSRAHENFKNLECFDEYIRESKIIGEIGLDYVWVKEKEKYPHMKRVFTYFLEEAKKYNKITNIHTKGAESEIYNYIKKYELKTPIIHWYSGDKDTLKKLLDYGCYFTISVDIGYSKLSKEIVQLLPIDKILTETDGPTSLEWVNGDYGYPNVIKNVVKEISKIKNIQEEEVKGVIENNFKTLIRKEGITLEGHHHHHH,soluble
12,MDTKHPPDPSGPSDPNINLGEFEDPVDGYADDDLLTPDDLSVSVTGMTPSRSFLETEEFETELGGVEPFEDLFNDISAHEIIQVIADGDRVGRPIVVVYAYRLPSSKEIDHARLLQYLVQIIDKIVDQDYTIVYFHYGLRSHNKPPVRWLFQAYKQLDRRFKKNLKALYVVHPTRFIRIIFSLFKGFISSKFENKFHYVMCIDELENALSVARLNLPSPIRDHDKSFSTQSNRPETPPAQPLPTQQFGVPLEFILSHCGGNIPPIVDQLIEYLEAHALTMEGVFRKSANIGSIKRLQDRINKGEKIDFENDPEYKDNEYVASLHASVLLKTFFRSLGEPLTTNRLYPKLAALSEVSKTEKSAAVKEFVKLLPRENYILLKTVIKFLTRVAENSKVNLMTANNLSVVFGPNLTWPTDQEVPISQLNNLNNFCYKLIVDYDSVFDH,not soluble
13,MMIFRFVTTLAASLPLLTFAAPISFSHAKNEAVKIYRDHPVSFYCGCEIRWQGKKGIPDLESCGYQVRKQENRASRIEWEHVVPAWQFGHQLQCWQQGGRKNCTRTSPEFNQMEADLHNLTPAIGEVNGNRSNFSFSQWNGIDGVTYGQCEMQVNFKERTAMPPERARGAIARTYLYMSEQYGLRLSKAQNQLMQAWNNQYPVSEWECVRDQKIEKVQGNSNRFVREQCPN,soluble
14,MGSDKIHHHHHHMSSNRCDDCHPAGIDDANRQPRLETAAKGGGEPAPSTANLPDAAHLPGGRIRIGISSCLLGNPVRFDGGHKFDPWVVNVLGAYLDFVPVCPEVECGMGIPREALRLVGDPSAPRLVTVKHGEDWTDRMRAWAERRVAELEGEGLCGYIFKRASPSSGMERVKVYPEFDPATGKSGGVPVQKGVGMFARAFIERFPLLPVEEEGRLNDPDLRENFIERLFVMRRWRQLLDDGLDTGGLVAFHTRHKLLMLAHSPQHYRTMGKLVAQAATYPRDELREAYQRLLMEGLRLRATPAKHVNVLQHIMGYFRKQLTPDEKQEMLEQIDLYRRALVPLVVPVTLLNHYVRKYGEKYLAGQFYLNPHPVELKLRNHV,not soluble
15,SPCDTNWRYYGDSCYGFFRHNLTWEESKQYCTDMNATLLKIDNRNIVEYIKARTHLIRWVGLSRQKSNEVWKWEDGSVISENMFEFLEDGKGNMNCAYFHNGKMHPTFCENKHYLMCERKAG,soluble
16,MPYIALEDGFLRSFGTGRHFPPLSLVVDRLGIYYDATRESELECLLASSRTLLDGIEDAVPEAMELVRERRLSKYNHGGFLATGVPADGRRRVLVVDQTEGDMSVTLGCAEAATFEAMLAAARAENPGALICVKTHPEVAAGDKSGYLSRVTDDADTLALRHDMNPLALLEQMDRVYVVSSQMGFEALMLDKPVICFGMPWYAGWGVTDDRQRCERRGRARSVEELFAGAYFHYTRYLDPVLH,not soluble
17,MGSDKIHHHHHHMKLNTIDYLAPDSAERFVESLRETGFGVLSNHPIQKQLVEDIYKEWYNFFQSEQKHDFLFKSETHDGFFPASISETAKGNNVKDIKEYYHVYPWGRIPDSLRANILAYYEHANTLAAELLSWIEKYTPADVAEKYSIPLPDMIAQSQQTLLRILHYPPMKGDEEMGAIRAAAHEDINLITILPAANEPGLQVKTKTGEWIDVPSDFGSIIINIGDMLQEASGGYFPSTSHRVINPEGTDKTKSRISLPLFLHPNPEVVLSERYTADSYLQERLRELGVI,not soluble
18,GHMASMDISGGNTSRQPQKKSNQNIQVYVRVRPLNSRERCIRSAEVVDVVGPREVVTRHTLDSKLTKKFTFDRSFGPESKQCDVYSVVVSPLIEEVLNGYNCTVFAYGQTGTGKTHTMVGNETAELKSSWEDDSDIGIIPRALSHLFDELRMMEVEYTMRISYLELYNEELCDLLSTDDTTKIRIFDDSTKKGSVIIQGLEEIPVHSKDDVYKLLEKGKERRKTATTLMNAQSSRSHTVFSIVVHIRENGIEGEDMLKIGKLNLVDLAGSENVSKAGNEKGIRVRETVNINQSLLTLGRVITALVDRAPHVPYRESKLTRLLQESLGGRTKTSIIATISPGHKDIEETLSTLEYAHRAKNIQNKPEVNQKLTK,soluble
19,MGSDKIHHHHHHMKTVMLMLTSLLMAGCSVLGKREAAEPPYELLKHDGAFEVRRYGPMVIAETILDEKSYSAASGKGFNRLAGYIFGKNRSKTSISMTAPVLQERSSEKISMTAPVLQQPQKGGWSMAFVLPEGFTLQSAPEPLDPEVKLRELPPSTIAVVTFSGLHSAANLEKYSRQLQAWLKKQGYRALSEPKLASYDPPWTIPFLRRNEVQIRIEPDHGESGKE,not soluble
20,MKKSSLNNLEYLDISQEVNALQVPNTPFLSYLLGAGKVEAAKSTEIKWREYGMNNDDSSAQLEGGEYADAESDRTWFNNYTEIFRKSTSVSGTLDAINVDGVGNELNSQVALRATEMKIDLNRKLIVGVKADESGSKGRQMNGILNLISSTNKVETAAAGAVTRKDIDALFKTMFQKGYMGEKLCLVAPDMQELMIDQLDEKSTKIVQFGDKLTFGLQLGNIVSNYGSGIALIEPNLPNGTIAAIDTNYVKLRPLREWRAEELAKTTDSRRIGLVGEYSIEYKASNSGAILNLKA,not soluble
21,MKRSAINDILGHTRQFFSQHDVHLPPFASFSPAQWQQLDTAAWEEVFDLKLGWDVTAFGRNNFAAHGLTLFTLRNGSAKGMPYVKCYAEKIMHVRDAQVTPMHFHWRKREDIINRGGGNLIVELWNADSNEQTADSDITVVIDGCRQKHTAGSQLRLSPGESICLPPGLYHSFWAEAGFGDVLVGEVSSVNDDDHDNHFLQPLDRYNLIDEDEPAQLVLCNEYRQFR,soluble
22,SLTTTEVVMENVTAFWEEGGTPVLKDINFKIERGQLLAVAGSTGAGKTSLLMMIMGELEPSEGKIKHSGRISFCSQFSWIMPGTIKENIIFGVSYDEYRYRSVIKACQLEEDISKFAEKDNIVLGEGGITLSGGQRARISLARAVYKDADLYLLDSPFGYLDVLTEKEIFESCVCKLMANKTRILVTSKMEHLKKADKILILHEGSSYFYGTFSELQNLQPDFSSKLGPSAQLKKKLQALKKKNAQLKWKLQALKKKLAQ,soluble
23,MKHMEKFANHFGYNRMFAKDQLTLGVHIPIENYQFHAPTMEKQVELVQKAEQYGFTGVWLRDVLLQDPDFGDPATGQIYDMMIYLTYLASKTEKIAFGTSATVLSLRHPLRVAKEIATLDQLFPERIMLGVSSGDRRADFKALGVSHETRGEKFREAFAYLEEILYKNFPSIQSTLGEVHGANLVPKPSKRVPTFITGFSQQNMEWFAEHGDGWMYYPRSPVHQAGAIGQWRELVEDYHPDVFKPFIQPMHLDLSEDPNERPTPIRLGYRTGRKALIELLDIYKSIGVNHLFLALFDGQRPADEVLDELGEEVLPHFPAL,soluble
